The results in this text go back to patent publication US20180155451A1 (published 2018).

To fix the notation:
B1: GpH7-B3 variant T335_15Y/GpL16-k0 (antibody, human IgG1, kappa)
heavy: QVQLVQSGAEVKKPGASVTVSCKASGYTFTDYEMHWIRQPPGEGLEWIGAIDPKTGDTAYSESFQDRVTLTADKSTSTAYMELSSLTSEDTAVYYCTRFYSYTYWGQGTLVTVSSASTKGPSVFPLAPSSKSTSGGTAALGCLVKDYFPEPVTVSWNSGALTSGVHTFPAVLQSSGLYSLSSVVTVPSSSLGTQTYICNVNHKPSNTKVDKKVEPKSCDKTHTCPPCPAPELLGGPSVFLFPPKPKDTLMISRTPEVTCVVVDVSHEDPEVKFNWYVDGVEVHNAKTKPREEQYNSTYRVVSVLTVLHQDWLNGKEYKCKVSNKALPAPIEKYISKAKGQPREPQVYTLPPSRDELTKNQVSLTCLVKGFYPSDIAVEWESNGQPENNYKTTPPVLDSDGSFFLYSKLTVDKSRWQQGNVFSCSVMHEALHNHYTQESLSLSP
light: DIVMTQSPLSLPVTPGEPASISCQASESLVHSNRNTYLHWYLQKPGQSPQLLIYKVSNRFSGVPDRFSGSGSGTDFTLKISRVEAEDVGVYYCSQNTHVPPTFGQGTKVEIERTVAAPSVFIFPPSDEQLKSGTASVVCLLNNFYPREAKVQWKVDNALQSGNSQESVTEQDSKDSTYSLSSTLTLSKADYEKHKVYACEVTHQGLSSPVTKSFNRGEC
notes: mutation in both H chains; also called Ho Ab T335_15Y; T335Y
B2: GpH7-B3 variant Y300_12R/GpL16-k0 (antibody, human IgG1, kappa)
heavy: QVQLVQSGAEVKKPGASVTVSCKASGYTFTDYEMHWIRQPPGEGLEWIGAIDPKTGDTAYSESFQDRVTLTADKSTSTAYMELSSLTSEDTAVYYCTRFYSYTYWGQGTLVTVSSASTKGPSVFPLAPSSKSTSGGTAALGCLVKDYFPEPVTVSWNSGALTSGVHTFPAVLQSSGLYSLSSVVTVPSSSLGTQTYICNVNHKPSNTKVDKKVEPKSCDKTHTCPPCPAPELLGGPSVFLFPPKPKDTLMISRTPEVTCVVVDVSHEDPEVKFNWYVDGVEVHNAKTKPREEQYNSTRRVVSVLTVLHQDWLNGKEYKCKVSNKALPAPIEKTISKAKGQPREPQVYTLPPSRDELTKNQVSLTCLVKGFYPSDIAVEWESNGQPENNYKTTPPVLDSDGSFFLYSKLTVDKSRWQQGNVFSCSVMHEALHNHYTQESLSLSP
light: DIVMTQSPLSLPVTPGEPASISCQASESLVHSNRNTYLHWYLQKPGQSPQLLIYKVSNRFSGVPDRFSGSGSGTDFTLKISRVEAEDVGVYYCSQNTHVPPTFGQGTKVEIERTVAAPSVFIFPPSDEQLKSGTASVVCLLNNFYPREAKVQWKVDNALQSGNSQESVTEQDSKDSTYSLSSTLTLSKADYEKHKVYACEVTHQGLSSPVTKSFNRGEC
notes: mutation in both H chains; also called Ho Ab Y300_12R; Y300R
B3: GpH7-B3 variant V266_19Q/GpL16-k0 (antibody, human IgG1, kappa)
heavy: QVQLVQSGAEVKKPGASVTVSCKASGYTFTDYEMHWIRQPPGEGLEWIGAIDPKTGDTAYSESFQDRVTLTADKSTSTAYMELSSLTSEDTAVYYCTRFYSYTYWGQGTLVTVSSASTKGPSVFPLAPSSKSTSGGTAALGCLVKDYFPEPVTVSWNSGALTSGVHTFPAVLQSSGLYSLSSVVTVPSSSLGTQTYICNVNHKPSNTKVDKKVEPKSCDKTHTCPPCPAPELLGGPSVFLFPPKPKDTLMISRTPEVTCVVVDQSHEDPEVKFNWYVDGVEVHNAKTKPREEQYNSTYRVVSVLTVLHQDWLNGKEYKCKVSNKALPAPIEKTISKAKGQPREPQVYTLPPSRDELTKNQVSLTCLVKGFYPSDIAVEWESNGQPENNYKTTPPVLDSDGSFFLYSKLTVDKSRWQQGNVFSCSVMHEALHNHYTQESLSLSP
light: DIVMTQSPLSLPVTPGEPASISCQASESLVHSNRNTYLHWYLQKPGQSPQLLIYKVSNRFSGVPDRFSGSGSGTDFTLKISRVEAEDVGVYYCSQNTHVPPTFGQGTKVEIERTVAAPSVFIFPPSDEQLKSGTASVVCLLNNFYPREAKVQWKVDNALQSGNSQESVTEQDSKDSTYSLSSTLTLSKADYEKHKVYACEVTHQGLSSPVTKSFNRGEC
notes: mutation in both H chains; also called Ho Ab V266_19Q; V266Q
B4: GpH7-A5/GpH7-B3 variant S298_11K/GpL16-k0 (antibody, human IgG1, kappa)
heavy 1: not shown
heavy 2: not shown
light: DIVMTQSPLSLPVTPGEPASISCQASESLVHSNRNTYLHWYLQKPGQSPQLLIYKVSNRFSGVPDRFSGSGSGTDFTLKISRVEAEDVGVYYCSQNTHVPPTFGQGTKVEIERTVAAPSVFIFPPSDEQLKSGTASVVCLLNNFYPREAKVQWKVDNALQSGNSQESVTEQDSKDSTYSLSSTLTLSKADYEKHKVYACEVTHQGLSSPVTKSFNRGEC
notes: mutation in one H chain only; also called He Ab S298_11K; S298K
B5: GpH7-A5/GpH7-B3 variant S267_03V/GpL16-k0 (antibody, human IgG1, kappa)
heavy 1: not shown
heavy 2: not shown
light: DIVMTQSPLSLPVTPGEPASISCQASESLVHSNRNTYLHWYLQKPGQSPQLLIYKVSNRFSGVPDRFSGSGSGTDFTLKISRVEAEDVGVYYCSQNTHVPPTFGQGTKVEIERTVAAPSVFIFPPSDEQLKSGTASVVCLLNNFYPREAKVQWKVDNALQSGNSQESVTEQDSKDSTYSLSSTLTLSKADYEKHKVYACEVTHQGLSSPVTKSFNRGEC
notes: mutation in one H chain only; also called He Ab S267_03V; S267V
B6: GpH7-A5/GpH7-B3 variant S267_09D/GpL16-k0 (antibody, human IgG1, kappa)
heavy 1: not shown
heavy 2: not shown
light: DIVMTQSPLSLPVTPGEPASISCQASESLVHSNRNTYLHWYLQKPGQSPQLLIYKVSNRFSGVPDRFSGSGSGTDFTLKISRVEAEDVGVYYCSQNTHVPPTFGQGTKVEIERTVAAPSVFIFPPSDEQLKSGTASVVCLLNNFYPREAKVQWKVDNALQSGNSQESVTEQDSKDSTYSLSSTLTLSKADYEKHKVYACEVTHQGLSSPVTKSFNRGEC
notes: mutation in one H chain only; also called He Ab S267_09D; S267D
B7: GpH7-A5/GpH7-B3 variant S239_09D/GpL16-k0 (antibody, human IgG1, kappa)
heavy 1: not shown
heavy 2: not shown
light: DIVMTQSPLSLPVTPGEPASISCQASESLVHSNRNTYLHWYLQKPGQSPQLLIYKVSNRFSGVPDRFSGSGSGTDFTLKISRVEAEDVGVYYCSQNTHVPPTFGQGTKVEIERTVAAPSVFIFPPSDEQLKSGTASVVCLLNNFYPREAKVQWKVDNALQSGNSQESVTEQDSKDSTYSLSSTLTLSKADYEKHKVYACEVTHQGLSSPVTKSFNRGEC
notes: mutation in one H chain only; also called He Ab S239_09D; S239D
B8: GpH7-A5/GpH7-B3 variant S239_18N/GpL16-k0 (antibody, human IgG1, kappa)
heavy 1: not shown
heavy 2: not shown
light: DIVMTQSPLSLPVTPGEPASISCQASESLVHSNRNTYLHWYLQKPGQSPQLLIYKVSNRFSGVPDRFSGSGSGTDFTLKISRVEAEDVGVYYCSQNTHVPPTFGQGTKVEIERTVAAPSVFIFPPSDEQLKSGTASVVCLLNNFYPREAKVQWKVDNALQSGNSQESVTEQDSKDSTYSLSSTLTLSKADYEKHKVYACEVTHQGLSSPVTKSFNRGEC
notes: mutation in one H chain only; also called He Ab S239_18N; S239N
B9: GpH7-A5/GpH7-B3 variant S239_19Q/GpL16-k0 (antibody, human IgG1, kappa)
heavy 1: not shown
heavy 2: not shown
light: DIVMTQSPLSLPVTPGEPASISCQASESLVHSNRNTYLHWYLQKPGQSPQLLIYKVSNRFSGVPDRFSGSGSGTDFTLKISRVEAEDVGVYYCSQNTHVPPTFGQGTKVEIERTVAAPSVFIFPPSDEQLKSGTASVVCLLNNFYPREAKVQWKVDNALQSGNSQESVTEQDSKDSTYSLSSTLTLSKADYEKHKVYACEVTHQGLSSPVTKSFNRGEC
notes: mutation in one H chain only; also called He Ab S239_19Q; S239Q
B10: GpH7-A5/GpH7-B3 variant S239_14T/GpL16-k0 (antibody, human IgG1, kappa)
heavy 1: not shown
heavy 2: not shown
light: DIVMTQSPLSLPVTPGEPASISCQASESLVHSNRNTYLHWYLQKPGQSPQLLIYKVSNRFSGVPDRFSGSGSGTDFTLKISRVEAEDVGVYYCSQNTHVPPTFGQGTKVEIERTVAAPSVFIFPPSDEQLKSGTASVVCLLNNFYPREAKVQWKVDNALQSGNSQESVTEQDSKDSTYSLSSTLTLSKADYEKHKVYACEVTHQGLSSPVTKSFNRGEC
notes: mutation in one H chain only; also called He Ab S239_14T; S239T
B11: GpH7-A5/GpH7-B3 variant S267_01G/GpL16-k0 (antibody, human IgG1, kappa)
heavy 1: not shown
heavy 2: not shown
light: DIVMTQSPLSLPVTPGEPASISCQASESLVHSNRNTYLHWYLQKPGQSPQLLIYKVSNRFSGVPDRFSGSGSGTDFTLKISRVEAEDVGVYYCSQNTHVPPTFGQGTKVEIERTVAAPSVFIFPPSDEQLKSGTASVVCLLNNFYPREAKVQWKVDNALQSGNSQESVTEQDSKDSTYSLSSTLTLSKADYEKHKVYACEVTHQGLSSPVTKSFNRGEC
notes: mutation in one H chain only; also called He Ab S267_01G; S267G
B12: GpH7-A5/GpH7-B3 variant S267_02A/GpL16-k0 (antibody, human IgG1, kappa)
heavy 1: not shown
heavy 2: not shown
light: DIVMTQSPLSLPVTPGEPASISCQASESLVHSNRNTYLHWYLQKPGQSPQLLIYKVSNRFSGVPDRFSGSGSGTDFTLKISRVEAEDVGVYYCSQNTHVPPTFGQGTKVEIERTVAAPSVFIFPPSDEQLKSGTASVVCLLNNFYPREAKVQWKVDNALQSGNSQESVTEQDSKDSTYSLSSTLTLSKADYEKHKVYACEVTHQGLSSPVTKSFNRGEC
notes: mutation in one H chain only; also called He Ab S267_02A; S267A
B13: GpH7-A5/GpH7-B3 variant S267_08L/GpL16-k0 (antibody, human IgG1, kappa)
heavy 1: not shown
heavy 2: not shown
light: DIVMTQSPLSLPVTPGEPASISCQASESLVHSNRNTYLHWYLQKPGQSPQLLIYKVSNRFSGVPDRFSGSGSGTDFTLKISRVEAEDVGVYYCSQNTHVPPTFGQGTKVEIERTVAAPSVFIFPPSDEQLKSGTASVVCLLNNFYPREAKVQWKVDNALQSGNSQESVTEQDSKDSTYSLSSTLTLSKADYEKHKVYACEVTHQGLSSPVTKSFNRGEC
notes: mutation in one H chain only; also called He Ab S267_08L; S267L
B14: GpH7-A5/GpH7-B3 variant S267_16H/GpL16-k0 (antibody, human IgG1, kappa)
heavy 1: not shown
heavy 2: not shown
light: DIVMTQSPLSLPVTPGEPASISCQASESLVHSNRNTYLHWYLQKPGQSPQLLIYKVSNRFSGVPDRFSGSGSGTDFTLKISRVEAEDVGVYYCSQNTHVPPTFGQGTKVEIERTVAAPSVFIFPPSDEQLKSGTASVVCLLNNFYPREAKVQWKVDNALQSGNSQESVTEQDSKDSTYSLSSTLTLSKADYEKHKVYACEVTHQGLSSPVTKSFNRGEC
notes: mutation in one H chain only; also called He Ab S267_16H; S267H
B15: GpH7-A5/GpH7-B3 variant S298_01G/GpL16-k0 (antibody, human IgG1, kappa)
heavy 1: not shown
heavy 2: not shown
light: DIVMTQSPLSLPVTPGEPASISCQASESLVHSNRNTYLHWYLQKPGQSPQLLIYKVSNRFSGVPDRFSGSGSGTDFTLKISRVEAEDVGVYYCSQNTHVPPTFGQGTKVEIERTVAAPSVFIFPPSDEQLKSGTASVVCLLNNFYPREAKVQWKVDNALQSGNSQESVTEQDSKDSTYSLSSTLTLSKADYEKHKVYACEVTHQGLSSPVTKSFNRGEC
notes: mutation in one H chain only; also called He Ab S298_01G; S298G
B16: GpH7-A5/GpH7-B3 variant S298_02A/GpL16-k0 (antibody, human IgG1, kappa)
heavy 1: not shown
heavy 2: not shown
light: DIVMTQSPLSLPVTPGEPASISCQASESLVHSNRNTYLHWYLQKPGQSPQLLIYKVSNRFSGVPDRFSGSGSGTDFTLKISRVEAEDVGVYYCSQNTHVPPTFGQGTKVEIERTVAAPSVFIFPPSDEQLKSGTASVVCLLNNFYPREAKVQWKVDNALQSGNSQESVTEQDSKDSTYSLSSTLTLSKADYEKHKVYACEVTHQGLSSPVTKSFNRGEC
notes: mutation in one H chain only; also called He Ab S298_02A; S298A

In one assay the target is T1, FcγRIa extracellular domain with C-terminal His tag (human, UniProt P12314 16-292).
T1 construct: extracellular domain; also called FcgRI; CD64; not shown: His tag at the C terminus
T1 sequence (P12314 16-292): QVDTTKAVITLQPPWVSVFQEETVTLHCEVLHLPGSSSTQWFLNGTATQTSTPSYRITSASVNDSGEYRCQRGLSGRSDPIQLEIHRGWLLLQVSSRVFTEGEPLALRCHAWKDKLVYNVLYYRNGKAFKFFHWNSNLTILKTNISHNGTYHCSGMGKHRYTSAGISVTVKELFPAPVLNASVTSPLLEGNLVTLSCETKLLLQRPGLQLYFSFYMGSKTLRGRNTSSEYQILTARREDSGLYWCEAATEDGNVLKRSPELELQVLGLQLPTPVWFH
Nature of the assay: SPR Biacore, relative FcγRIa binding vs GpH7-B3/GpL16-k0. For orientation: Surface plasmon resonance follows binding to a sensor surface in real time, without labels.
On to B1, for which the Ho/Con_1a was 106 % of HoCon Ab (=100). In the case of B2, the Ho/Con_1a is 96.5 % of HoCon Ab (=100).

On to B3, for which the Ho/Con_1a is 91.2 % of HoCon Ab (=100).

The next assay deals with T1, FcγRIa extracellular domain with …. As to the kind of experiment: SPR Biacore, relative FcγRIa binding vs GpH7-A5/GpH7-B3/GpL16-k0.
In the case of B4, the He/Con_1a is 109 % of HeCon Ab (=100).

As to B5, the He/Con_1a is 106 % of HeCon Ab (=100). Still for that read-out and setting: under B6 stands 110 % of HeCon Ab (=100); under B7, 101 % of HeCon Ab (=100); under B8, 101 % of HeCon Ab (=100). B9: the He/Con_1a was 101 % of HeCon Ab (=100). On the same count and under the same terms, under B10 stands 101 % of HeCon Ab (=100). Same read-out and setting: with B11 the figure was 103 % of HeCon Ab (=100); with B12, 109 % of HeCon Ab (=100); with B13, 101 % of HeCon Ab (=100).

As for B14, the He/Con_1a is 100 % of HeCon Ab (=100). On the same count and under the same terms, under B15 stands 104 % of HeCon Ab (=100); under B16, 107 % of HeCon Ab (=100).
